# Measured values reported in patent publication US20150274828A1 (SHANGHAI SERUM BIOTECHNOLOGY, published 2015).
# Biological target: T1, EGFR-Fc fusion protein (recombinant EGFR extracellular region-Fc) (human, UniProt P00533 25-645)
# T1 construct: extracellular domain; not shown: Fc part supplied by vector pABG1
# Experiment: BLI ForteBio QKe, biotinylated EGFR-Fc on streptavidin sensor, antibody 20 nM; fold reduction of affinity, parent Ame55 = 1;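 note: parent antibody affinity set as 1, with values giving the fold drop in affinity of each mutant antibody relative to that parent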
row,Affinity change,Binder
1,5 fold,"Ame55 mutant, heavy chain 108A (antibody, V domains shown, Mutant of Ame55) VH: EVQLVQSGAEVKKPGESLKISCKGSGYSFTSYWIGWVRQMPGKGLEWMGIIYPGDSDTRYSPSFQGQVTISADKSISTAYLQWSSLKASDTAMYYCARGIIYPSNVAAWGQGTLVTVSS VL: SYELTQPPSVSVAPGQTARITCSGDALGDKYASWYQQKPGQAPVLVIYEDSKRPSGIPERFSGSNSGNTATLTISGTQAEDEADYYCSVWDGDWGMPVFGGGTKLTVLG"
2,5 fold,"Ame55 mutant, heavy chain 100A (antibody, V domains shown, Mutant of Ame55) VH: EVQLVQSGAEVKKPGESLKISCKGSGYSFTSYWIGWVRQMPGKGLEWMGIIYPGDSDTRYSPSFQGQVTISADKSISTAYLQWSSLKASDTAMYYCARGAIYPSNVAVWGQGTLVTVSS VL: SYELTQPPSVSVAPGQTARITCSGDALGDKYASWYQQKPGQAPVLVIYEDSKRPSGIPERFSGSNSGNTATLTISGTQAEDEADYYCSVWDGDWGMPVFGGGTKLTVLG"
3,3 fold,"Ame55 mutant, heavy chain 104A (antibody, V domains shown, Mutant of Ame55) VH: EVQLVQSGAEVKKPGESLKISCKGSGYSFTSYWIGWVRQMPGKGLEWMGIIYPGDSDTRYSPSFQGQVTISADKSISTAYLQWSSLKASDTAMYYCARGIIYPANVAVWGQGTLVTVSS VL: SYELTQPPSVSVAPGQTARITCSGDALGDKYASWYQQKPGQAPVLVIYEDSKRPSGIPERFSGSNSGNTATLTISGTQAEDEADYYCSVWDGDWGMPVFGGGTKLTVLG"
4,0.2 fold,"Ame55 mutant, heavy chain 107S (antibody, V domains shown, Mutant of Ame55) VH: EVQLVQSGAEVKKPGESLKISCKGSGYSFTSYWIGWVRQMPGKGLEWMGIIYPGDSDTRYSPSFQGQVTISADKSISTAYLQWSSLKASDTAMYYCARGIIYPSNVSVWGQGTLVTVSS VL: SYELTQPPSVSVAPGQTARITCSGDALGDKYASWYQQKPGQAPVLVIYEDSKRPSGIPERFSGSNSGNTATLTISGTQAEDEADYYCSVWDGDWGMPVFGGGTKLTVLG"
5,> 10 fold,"Ame55 mutant, heavy chain 106A (antibody, V domains shown, Mutant of Ame55) VH: EVQLVQSGAEVKKPGESLKISCKGSGYSFTSYWIGWVRQMPGKGLEWMGIIYPGDSDTRYSPSFQGQVTISADKSISTAYLQWSSLKASDTAMYYCARGIIYPSNAAVWGQGTLVTVSS VL: SYELTQPPSVSVAPGQTARITCSGDALGDKYASWYQQKPGQAPVLVIYEDSKRPSGIPERFSGSNSGNTATLTISGTQAEDEADYYCSVWDGDWGMPVFGGGTKLTVLG"
6,4 fold,"Ame55 mutant, heavy chain 101A (antibody, V domains shown, Mutant of Ame55) VH: EVQLVQSGAEVKKPGESLKISCKGSGYSFTSYWIGWVRQMPGKGLEWMGIIYPGDSDTRYSPSFQGQVTISADKSISTAYLQWSSLKASDTAMYYCARGIAYPSNVAVWGQGTLVTVSS VL: SYELTQPPSVSVAPGQTARITCSGDALGDKYASWYQQKPGQAPVLVIYEDSKRPSGIPERFSGSNSGNTATLTISGTQAEDEADYYCSVWDGDWGMPVFGGGTKLTVLG"
7,> 10 fold,"Ame55 mutant, heavy chain 105A (antibody, V domains shown, Mutant of Ame55) VH: EVQLVQSGAEVKKPGESLKISCKGSGYSFTSYWIGWVRQMPGKGLEWMGIIYPGDSDTRYSPSFQGQVTISADKSISTAYLQWSSLKASDTAMYYCARGIIYPSAVAVWGQGTLVTVSS VL: SYELTQPPSVSVAPGQTARITCSGDALGDKYASWYQQKPGQAPVLVIYEDSKRPSGIPERFSGSNSGNTATLTISGTQAEDEADYYCSVWDGDWGMPVFGGGTKLTVLG"
8,1.5 fold,"Ame55 mutant, heavy chain 107G (antibody, V domains shown, Mutant of Ame55) VH: EVQLVQSGAEVKKPGESLKISCKGSGYSFTSYWIGWVRQMPGKGLEWMGIIYPGDSDTRYSPSFQGQVTISADKSISTAYLQWSSLKASDTAMYYCARGIIYPSNVGVWGQGTLVTVSS VL: SYELTQPPSVSVAPGQTARITCSGDALGDKYASWYQQKPGQAPVLVIYEDSKRPSGIPERFSGSNSGNTATLTISGTQAEDEADYYCSVWDGDWGMPVFGGGTKLTVLG"

# More lines, now with the values behind:
row,Binder,Affinity change
1,"Ame55 mutant, heavy chain 51A (antibody, V domains shown, Mutant of Ame55) VH: EVQLVQSGAEVKKPGESLKISCKGSGYSFTSYWIGWVRQMPGKGLEWMGIAYPGDSDTRYSPSFQGQVTISADKSISTAYLQWSSLKASDTAMYYCARGIIYPSNVAVWGQGTLVTVSS VL: SYELTQPPSVSVAPGQTARITCSGDALGDKYASWYQQKPGQAPVLVIYEDSKRPSGIPERFSGSNSGNTATLTISGTQAEDEADYYCSVWDGDWGMPVFGGGTKLTVLG",> 10 fold
2,"Ame55 mutant, heavy chain 53A (antibody, V domains shown, Mutant of Ame55) VH: EVQLVQSGAEVKKPGESLKISCKGSGYSFTSYWIGWVRQMPGKGLEWMGIIYAGDSDTRYSPSFQGQVTISADKSISTAYLQWSSLKASDTAMYYCARGIIYPSNVAVWGQGTLVTVSS VL: SYELTQPPSVSVAPGQTARITCSGDALGDKYASWYQQKPGQAPVLVIYEDSKRPSGIPERFSGSNSGNTATLTISGTQAEDEADYYCSVWDGDWGMPVFGGGTKLTVLG",5 fold
3,"Ame55 mutant, heavy chain 58A (antibody, V domains shown, Mutant of Ame55) VH: EVQLVQSGAEVKKPGESLKISCKGSGYSFTSYWIGWVRQMPGKGLEWMGIIYPGDSDARYSPSFQGQVTISADKSISTAYLQWSSLKASDTAMYYCARGIIYPSNVAVWGQGTLVTVSS VL: SYELTQPPSVSVAPGQTARITCSGDALGDKYASWYQQKPGQAPVLVIYEDSKRPSGIPERFSGSNSGNTATLTISGTQAEDEADYYCSVWDGDWGMPVFGGGTKLTVLG",> 10 fold
4,"Ame55 mutant, heavy chain 59N (antibody, V domains shown, Mutant of Ame55) VH: EVQLVQSGAEVKKPGESLKISCKGSGYSFTSYWIGWVRQMPGKGLEWMGIIYPGDSDTNYSPSFQGQVTISADKSISTAYLQWSSLKASDTAMYYCARGIIYPSNVAVWGQGTLVTVSS VL: SYELTQPPSVSVAPGQTARITCSGDALGDKYASWYQQKPGQAPVLVIYEDSKRPSGIPERFSGSNSGNTATLTISGTQAEDEADYYCSVWDGDWGMPVFGGGTKLTVLG",> 10 fold
5,"Ame55 mutant, heavy chain 60A (antibody, V domains shown, Mutant of Ame55) VH: EVQLVQSGAEVKKPGESLKISCKGSGYSFTSYWIGWVRQMPGKGLEWMGIIYPGDSDTRASPSFQGQVTISADKSISTAYLQWSSLKASDTAMYYCARGIIYPSNVAVWGQGTLVTVSS VL: SYELTQPPSVSVAPGQTARITCSGDALGDKYASWYQQKPGQAPVLVIYEDSKRPSGIPERFSGSNSGNTATLTISGTQAEDEADYYCSVWDGDWGMPVFGGGTKLTVLG",5 fold
6,"Ame55 mutant, heavy chain 99A (antibody, V domains shown, Mutant of Ame55) VH: EVQLVQSGAEVKKPGESLKISCKGSGYSFTSYWIGWVRQMPGKGLEWMGIIYPGDSDTRYSPSFQGQVTISADKSISTAYLQWSSLKASDTAMYYCARAIIYPSNVAVWGQGTLVTVSS VL: SYELTQPPSVSVAPGQTARITCSGDALGDKYASWYQQKPGQAPVLVIYEDSKRPSGIPERFSGSNSGNTATLTISGTQAEDEADYYCSVWDGDWGMPVFGGGTKLTVLG",> 10 fold
7,"Ame55 mutant, heavy chain 55A (antibody, V domains shown, Mutant of Ame55) VH: EVQLVQSGAEVKKPGESLKISCKGSGYSFTSYWIGWVRQMPGKGLEWMGIIYPGASDTRYSPSFQGQVTISADKSISTAYLQWSSLKASDTAMYYCARGIIYPSNVAVWGQGTLVTVSS VL: SYELTQPPSVSVAPGQTARITCSGDALGDKYASWYQQKPGQAPVLVIYEDSKRPSGIPERFSGSNSGNTATLTISGTQAEDEADYYCSVWDGDWGMPVFGGGTKLTVLG",> 100 fold
8,"Ame55 mutant, heavy chain 54S (antibody, V domains shown, Mutant of Ame55) VH: EVQLVQSGAEVKKPGESLKISCKGSGYSFTSYWIGWVRQMPGKGLEWMGIIYPSDSDTRYSPSFQGQVTISADKSISTAYLQWSSLKASDTAMYYCARGIIYPSNVAVWGQGTLVTVSS VL: SYELTQPPSVSVAPGQTARITCSGDALGDKYASWYQQKPGQAPVLVIYEDSKRPSGIPERFSGSNSGNTATLTISGTQAEDEADYYCSVWDGDWGMPVFGGGTKLTVLG",0.5 fold
9,"Ame55 mutant, heavy chain 59A (antibody, V domains shown, Mutant of Ame55) VH: EVQLVQSGAEVKKPGESLKISCKGSGYSFTSYWIGWVRQMPGKGLEWMGIIYPGDSDTAYSPSFQGQVTISADKSISTAYLQWSSLKASDTAMYYCARGIIYPSNVAVWGQGTLVTVSS VL: SYELTQPPSVSVAPGQTARITCSGDALGDKYASWYQQKPGQAPVLVIYEDSKRPSGIPERFSGSNSGNTATLTISGTQAEDEADYYCSVWDGDWGMPVFGGGTKLTVLG",> 10 fold
10,"Ame55 mutant, heavy chain 99S (antibody, V domains shown, Mutant of Ame55) VH: EVQLVQSGAEVKKPGESLKISCKGSGYSFTSYWIGWVRQMPGKGLEWMGIIYPGDSDTRYSPSFQGQVTISADKSISTAYLQWSSLKASDTAMYYCARSIIYPSNVAVWGQGTLVTVSS VL: SYELTQPPSVSVAPGQTARITCSGDALGDKYASWYQQKPGQAPVLVIYEDSKRPSGIPERFSGSNSGNTATLTISGTQAEDEADYYCSVWDGDWGMPVFGGGTKLTVLG",> 10 fold
11,"Ame55 mutant, heavy chain 54A (antibody, V domains shown, Mutant of Ame55) VH: EVQLVQSGAEVKKPGESLKISCKGSGYSFTSYWIGWVRQMPGKGLEWMGIIYPADSDTRYSPSFQGQVTISADKSISTAYLQWSSLKASDTAMYYCARGIIYPSNVAVWGQGTLVTVSS VL: SYELTQPPSVSVAPGQTARITCSGDALGDKYASWYQQKPGQAPVLVIYEDSKRPSGIPERFSGSNSGNTATLTISGTQAEDEADYYCSVWDGDWGMPVFGGGTKLTVLG",> 10 fold
12,"Ame55 mutant, heavy chain 56A (antibody, V domains shown, Mutant of Ame55) VH: EVQLVQSGAEVKKPGESLKISCKGSGYSFTSYWIGWVRQMPGKGLEWMGIIYPGDADTRYSPSFQGQVTISADKSISTAYLQWSSLKASDTAMYYCARGIIYPSNVAVWGQGTLVTVSS VL: SYELTQPPSVSVAPGQTARITCSGDALGDKYASWYQQKPGQAPVLVIYEDSKRPSGIPERFSGSNSGNTATLTISGTQAEDEADYYCSVWDGDWGMPVFGGGTKLTVLG",1 fold
13,"Ame55 mutant, heavy chain 52D (antibody, V domains shown, Mutant of Ame55) VH: EVQLVQSGAEVKKPGESLKISCKGSGYSFTSYWIGWVRQMPGKGLEWMGIIDPGDSDTRYSPSFQGQVTISADKSISTAYLQWSSLKASDTAMYYCARGIIYPSNVAVWGQGTLVTVSS VL: SYELTQPPSVSVAPGQTARITCSGDALGDKYASWYQQKPGQAPVLVIYEDSKRPSGIPERFSGSNSGNTATLTISGTQAEDEADYYCSVWDGDWGMPVFGGGTKLTVLG",> 10 fold
